# Results published in the supplement of paper PMC10065799, “High-throughput profiling of sequence recognition by tyrosine kinases and SH2 domains using bacterial peptide display” (eLife, 2023).
# Molecular target: SHP2-C SH2
# Assay: SH2 binding enrichment of the phosphorylated peptide, bacterial display (enrichment ratio); higher = better substrate or ligand; peptides without Tyr show the background
# 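Wherever SH2 binding enrichment of the phosphorylated peptide, bacterial display is given: peptide library displayed on the E. coli surface as eCPX fusions, selected cells deep-sequenced, score is each peptide's frequency after selection divided by its frequency in the input.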
# 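Wherever phosphorylation enrichment, bacterial display is given: 11-residue human phosphosite peptides and single-mutation variants displayed on the E. coli surface, counted by deep sequencing, each peptide's frequency after selection divided by its frequency in the unselected input library; frequency after pTyr selection over input frequency; kinase dosed for 20-30% of maximal phosphorylation in three min.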
row,SH2 binding enrichment,Sequence
1,0.852,VGSEDYGWDLT [SPTAN1_Y1792_R1794W]
2,0.79,GGYTCYCDGKK [PROS1_Y266]
3,0.688,WISNRYLDFSS [PRPH2_Y184]
4,0.791,RESYKYLPSSL [CXXC1_Y218_F219L]
5,0.93,VSSPKYGSDDE [TMCC2_Y473]
6,1.99,KRGIDYILRHM [FRMD1_Y225]
7,0.571,EWKNNCPRLRE [OPA1_Y582_Y582C]
8,5.17,GVRYTYTIDGS [DCX_Y105_I104T]
9,0.706,TISPFYRQSLF [CRYAA_Y48_YF]

# The next lines start with the sequence.
row,Sequence,SH2 binding enrichment
1,TLNTNYHLPPS [MT-ATP8_Y33_M28T],0.608
2,FPMLNYKDIRK [CFAP221_Y798],0.635
3,RDGDRYFKGIV [DCX_Y64_N60D],0.606
4,YDAHNYHPLPV [OAT_Y55_G51D],0.697
5,ETRWKYHFEVV [GCNT3_Y267],0.678
6,GLRCGYGVLGG [KRTAP20-2_Y15_Y13C],0.572
7,ADLAKYICENR [ALB_Y287_Q292R],0.79

# Molecular target: Grb2 SH2 (UniProt P62993)
# Assay: as above
row,SH2 binding enrichment,Sequence
1,0.824,VGSEDYGWDLT [SPTAN1_Y1792_R1794W]
2,0.766,GGYTCYCDGKK [PROS1_Y266]
3,0.871,WISNRYLDFSS [PRPH2_Y184]
4,1.1,RESYKYLPSSL [CXXC1_Y218_F219L]
5,1.13,VSSPKYGSDDE [TMCC2_Y473]
6,1.95,KRGIDYILRHM [FRMD1_Y225]
7,0.916,EWKNNCPRLRE [OPA1_Y582_Y582C]
8,1.07,GVRYTYTIDGS [DCX_Y105_I104T]
9,0.85,TISPFYRQSLF [CRYAA_Y48_YF]

# Second part, the sequence before the results:
row,Sequence,SH2 binding enrichment
1,TLNTNYHLPPS [MT-ATP8_Y33_M28T],0.761
2,FPMLNYKDIRK [CFAP221_Y798],0.976
3,RDGDRYFKGIV [DCX_Y64_N60D],1.16
4,YDAHNYHPLPV [OAT_Y55_G51D],1.15
5,ETRWKYHFEVV [GCNT3_Y267],0.712
6,GLRCGYGVLGG [KRTAP20-2_Y15_Y13C],0.806
7,ADLAKYICENR [ALB_Y287_Q292R],0.817

# Molecular target: c-Src SH2
# Assay: as above
row,SH2 binding enrichment,Sequence
1,0.515,VGSEDYGWDLT [SPTAN1_Y1792_R1794W]
2,0.549,GGYTCYCDGKK [PROS1_Y266]
3,0.62,WISNRYLDFSS [PRPH2_Y184]
4,0.582,RESYKYLPSSL [CXXC1_Y218_F219L]
5,0.556,VSSPKYGSDDE [TMCC2_Y473]
6,1.68,KRGIDYILRHM [FRMD1_Y225]
7,0.562,EWKNNCPRLRE [OPA1_Y582_Y582C]
8,1.43,GVRYTYTIDGS [DCX_Y105_I104T]
9,0.612,TISPFYRQSLF [CRYAA_Y48_YF]

# Continued, sequence first:
row,Sequence,SH2 binding enrichment
1,TLNTNYHLPPS [MT-ATP8_Y33_M28T],0.483
2,FPMLNYKDIRK [CFAP221_Y798],0.516
3,RDGDRYFKGIV [DCX_Y64_N60D],0.537
4,YDAHNYHPLPV [OAT_Y55_G51D],0.813
5,ETRWKYHFEVV [GCNT3_Y267],0.437
6,GLRCGYGVLGG [KRTAP20-2_Y15_Y13C],0.52
7,ADLAKYICENR [ALB_Y287_Q292R],0.424

# Test system: AncSZ
# Assay: phosphorylation enrichment, bacterial display (enrichment ratio); higher = better substrate or ligand; peptides without Tyr show the background
row,Sequence,phosphorylation enrichment
1,VGSEDYGWDLT [SPTAN1_Y1792_R1794W],1.2
2,TLNTNYHLPPS [MT-ATP8_Y33_M28T],0.698
3,FPMLNYKDIRK [CFAP221_Y798],0.49
4,GGYTCYCDGKK [PROS1_Y266],0.985
5,RDGDRYFKGIV [DCX_Y64_N60D],0.427
6,WISNRYLDFSS [PRPH2_Y184],0.961
7,RESYKYLPSSL [CXXC1_Y218_F219L],1.09
8,VSSPKYGSDDE [TMCC2_Y473],0.968
9,YDAHNYHPLPV [OAT_Y55_G51D],0.871
10,ETRWKYHFEVV [GCNT3_Y267],1.42
11,KRGIDYILRHM [FRMD1_Y225],0.792
12,EWKNNCPRLRE [OPA1_Y582_Y582C],0.9
13,GVRYTYTIDGS [DCX_Y105_I104T],0.986
14,GLRCGYGVLGG [KRTAP20-2_Y15_Y13C],0.775
15,TISPFYRQSLF [CRYAA_Y48_YF],0.648
16,ADLAKYICENR [ALB_Y287_Q292R],0.84

# Molecular target: Jak2 (UniProt O60674)
# Sequence (O60674 whole entry, looked up): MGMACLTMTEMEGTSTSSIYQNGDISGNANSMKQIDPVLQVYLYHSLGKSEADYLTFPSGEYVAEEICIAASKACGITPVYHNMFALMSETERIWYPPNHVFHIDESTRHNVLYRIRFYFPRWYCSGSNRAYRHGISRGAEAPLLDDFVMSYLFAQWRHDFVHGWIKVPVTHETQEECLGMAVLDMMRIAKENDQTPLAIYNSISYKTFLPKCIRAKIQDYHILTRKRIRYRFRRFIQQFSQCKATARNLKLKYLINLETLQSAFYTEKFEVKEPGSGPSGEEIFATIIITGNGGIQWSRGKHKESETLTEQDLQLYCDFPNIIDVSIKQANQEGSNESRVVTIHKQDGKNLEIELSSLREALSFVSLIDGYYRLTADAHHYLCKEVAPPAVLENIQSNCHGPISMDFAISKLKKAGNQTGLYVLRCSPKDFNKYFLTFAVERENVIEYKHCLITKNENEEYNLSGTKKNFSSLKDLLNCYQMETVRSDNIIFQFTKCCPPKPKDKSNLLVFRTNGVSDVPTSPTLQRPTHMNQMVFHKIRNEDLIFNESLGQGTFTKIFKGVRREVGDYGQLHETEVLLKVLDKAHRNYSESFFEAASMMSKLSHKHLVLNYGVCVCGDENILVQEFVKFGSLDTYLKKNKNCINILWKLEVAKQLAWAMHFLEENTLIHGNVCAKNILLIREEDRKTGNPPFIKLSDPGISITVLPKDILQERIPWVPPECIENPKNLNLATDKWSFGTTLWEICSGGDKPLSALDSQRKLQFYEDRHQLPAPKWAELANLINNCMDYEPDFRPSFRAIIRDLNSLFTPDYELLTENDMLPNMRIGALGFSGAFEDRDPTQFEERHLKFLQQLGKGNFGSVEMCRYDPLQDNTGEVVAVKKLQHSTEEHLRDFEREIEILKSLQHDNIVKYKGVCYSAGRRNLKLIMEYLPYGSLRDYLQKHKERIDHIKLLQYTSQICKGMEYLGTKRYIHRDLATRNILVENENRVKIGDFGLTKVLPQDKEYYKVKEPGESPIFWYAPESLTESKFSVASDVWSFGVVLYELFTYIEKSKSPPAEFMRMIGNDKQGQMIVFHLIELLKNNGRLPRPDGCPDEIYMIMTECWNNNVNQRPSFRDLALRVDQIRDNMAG
# Assay: as above
row,Sequence,phosphorylation enrichment
1,VGSEDYGWDLT [SPTAN1_Y1792_R1794W],0.967
2,TLNTNYHLPPS [MT-ATP8_Y33_M28T],0.485
3,FPMLNYKDIRK [CFAP221_Y798],0.469
4,GGYTCYCDGKK [PROS1_Y266],1.2
5,RDGDRYFKGIV [DCX_Y64_N60D],0.609
6,WISNRYLDFSS [PRPH2_Y184],0.894
7,RESYKYLPSSL [CXXC1_Y218_F219L],1.11
8,VSSPKYGSDDE [TMCC2_Y473],0.926
9,YDAHNYHPLPV [OAT_Y55_G51D],0.848
10,ETRWKYHFEVV [GCNT3_Y267],1.35
11,KRGIDYILRHM [FRMD1_Y225],0.654
12,EWKNNCPRLRE [OPA1_Y582_Y582C],0.81
13,GVRYTYTIDGS [DCX_Y105_I104T],0.981
14,GLRCGYGVLGG [KRTAP20-2_Y15_Y13C],0.825
15,TISPFYRQSLF [CRYAA_Y48_YF],0.693
16,ADLAKYICENR [ALB_Y287_Q292R],0.928

# Test system: c-Src
# Assay: as above
row,Sequence,phosphorylation enrichment
1,VGSEDYGWDLT [SPTAN1_Y1792_R1794W],0.419
2,TLNTNYHLPPS [MT-ATP8_Y33_M28T],0.403
3,FPMLNYKDIRK [CFAP221_Y798],0.416
4,GGYTCYCDGKK [PROS1_Y266],0.499
5,RDGDRYFKGIV [DCX_Y64_N60D],0.382
6,WISNRYLDFSS [PRPH2_Y184],0.705
7,RESYKYLPSSL [CXXC1_Y218_F219L],0.993
8,VSSPKYGSDDE [TMCC2_Y473],0.619
9,YDAHNYHPLPV [OAT_Y55_G51D],0.622
10,ETRWKYHFEVV [GCNT3_Y267],0.364
11,KRGIDYILRHM [FRMD1_Y225],0.387
12,EWKNNCPRLRE [OPA1_Y582_Y582C],0.411
13,GVRYTYTIDGS [DCX_Y105_I104T],0.56
14,GLRCGYGVLGG [KRTAP20-2_Y15_Y13C],0.73
15,TISPFYRQSLF [CRYAA_Y48_YF],0.395
16,ADLAKYICENR [ALB_Y287_Q292R],0.467

# Molecular target: Hck (UniProt P08631)
# Sequence (P08631 whole entry, looked up): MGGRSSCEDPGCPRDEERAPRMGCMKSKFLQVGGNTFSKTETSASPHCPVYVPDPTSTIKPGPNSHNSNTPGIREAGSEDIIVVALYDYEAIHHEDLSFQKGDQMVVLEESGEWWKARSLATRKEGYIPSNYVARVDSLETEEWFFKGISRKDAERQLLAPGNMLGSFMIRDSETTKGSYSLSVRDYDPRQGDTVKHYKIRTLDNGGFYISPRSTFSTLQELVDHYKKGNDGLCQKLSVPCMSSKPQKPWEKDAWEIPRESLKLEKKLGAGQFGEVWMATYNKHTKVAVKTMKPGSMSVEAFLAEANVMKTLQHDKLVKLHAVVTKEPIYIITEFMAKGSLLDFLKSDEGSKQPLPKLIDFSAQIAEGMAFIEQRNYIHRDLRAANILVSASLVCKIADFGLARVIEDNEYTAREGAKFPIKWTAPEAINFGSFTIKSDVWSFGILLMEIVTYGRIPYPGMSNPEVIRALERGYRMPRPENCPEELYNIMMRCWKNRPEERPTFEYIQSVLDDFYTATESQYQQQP
# Assay: as above
row,Sequence,phosphorylation enrichment
1,VGSEDYGWDLT [SPTAN1_Y1792_R1794W],0.443
2,TLNTNYHLPPS [MT-ATP8_Y33_M28T],0.343
3,FPMLNYKDIRK [CFAP221_Y798],0.441
4,GGYTCYCDGKK [PROS1_Y266],0.462
5,RDGDRYFKGIV [DCX_Y64_N60D],0.437
6,WISNRYLDFSS [PRPH2_Y184],0.577
7,RESYKYLPSSL [CXXC1_Y218_F219L],0.762
8,VSSPKYGSDDE [TMCC2_Y473],0.429
9,YDAHNYHPLPV [OAT_Y55_G51D],2.01
10,ETRWKYHFEVV [GCNT3_Y267],0.563
11,KRGIDYILRHM [FRMD1_Y225],0.396
12,EWKNNCPRLRE [OPA1_Y582_Y582C],0.472
13,GVRYTYTIDGS [DCX_Y105_I104T],0.483
14,GLRCGYGVLGG [KRTAP20-2_Y15_Y13C],0.432
15,TISPFYRQSLF [CRYAA_Y48_YF],0.396
16,ADLAKYICENR [ALB_Y287_Q292R],0.447

# Molecular target: MERTK (UniProt Q12866)
# Sequence (Q12866 whole entry, looked up): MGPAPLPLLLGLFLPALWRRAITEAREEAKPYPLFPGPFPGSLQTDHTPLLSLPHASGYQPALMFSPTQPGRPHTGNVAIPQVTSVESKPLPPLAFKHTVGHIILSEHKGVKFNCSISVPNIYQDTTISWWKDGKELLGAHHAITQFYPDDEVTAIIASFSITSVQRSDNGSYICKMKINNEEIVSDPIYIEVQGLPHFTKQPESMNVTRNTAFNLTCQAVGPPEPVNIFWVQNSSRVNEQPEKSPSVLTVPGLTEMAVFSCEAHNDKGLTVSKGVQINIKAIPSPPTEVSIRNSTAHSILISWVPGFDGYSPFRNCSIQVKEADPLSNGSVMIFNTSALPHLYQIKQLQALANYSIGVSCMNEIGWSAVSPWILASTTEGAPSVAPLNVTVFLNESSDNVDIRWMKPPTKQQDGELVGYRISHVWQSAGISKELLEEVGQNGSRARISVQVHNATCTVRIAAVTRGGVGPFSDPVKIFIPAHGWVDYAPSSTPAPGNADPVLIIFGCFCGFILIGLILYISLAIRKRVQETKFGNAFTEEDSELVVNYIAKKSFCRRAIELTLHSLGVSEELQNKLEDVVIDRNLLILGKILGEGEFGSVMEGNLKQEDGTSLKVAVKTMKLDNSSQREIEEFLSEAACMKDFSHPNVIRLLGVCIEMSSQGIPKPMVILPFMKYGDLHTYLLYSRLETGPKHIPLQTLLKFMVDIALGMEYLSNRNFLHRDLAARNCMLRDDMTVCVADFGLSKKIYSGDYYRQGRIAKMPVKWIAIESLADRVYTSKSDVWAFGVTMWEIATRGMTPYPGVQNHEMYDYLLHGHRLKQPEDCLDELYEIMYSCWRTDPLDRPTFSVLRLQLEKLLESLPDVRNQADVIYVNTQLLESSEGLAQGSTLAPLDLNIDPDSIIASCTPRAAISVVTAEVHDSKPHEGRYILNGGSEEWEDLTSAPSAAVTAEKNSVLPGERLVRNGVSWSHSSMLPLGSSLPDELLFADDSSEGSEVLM
# Assay: as above
row,Sequence,phosphorylation enrichment
1,VGSEDYGWDLT [SPTAN1_Y1792_R1794W],0.36
2,TLNTNYHLPPS [MT-ATP8_Y33_M28T],0.57
3,FPMLNYKDIRK [CFAP221_Y798],0.431
4,GGYTCYCDGKK [PROS1_Y266],0.439
5,RDGDRYFKGIV [DCX_Y64_N60D],0.374
6,WISNRYLDFSS [PRPH2_Y184],0.54
7,RESYKYLPSSL [CXXC1_Y218_F219L],0.859
8,VSSPKYGSDDE [TMCC2_Y473],0.464
9,YDAHNYHPLPV [OAT_Y55_G51D],3.58
10,ETRWKYHFEVV [GCNT3_Y267],0.418
11,KRGIDYILRHM [FRMD1_Y225],0.396
12,EWKNNCPRLRE [OPA1_Y582_Y582C],0.415
13,GVRYTYTIDGS [DCX_Y105_I104T],0.447
14,GLRCGYGVLGG [KRTAP20-2_Y15_Y13C],0.359
15,TISPFYRQSLF [CRYAA_Y48_YF],0.467
16,ADLAKYICENR [ALB_Y287_Q292R],0.45
